Molecular target: mouse serum proteins (serum protein binding assay) (mouse)
Assay: ultrafiltration of serum

B1: 800-G-Abz4-t-BBN (peptide)
peptide: GQWAVGHLM
modifications: IRDye800 (800CW) on the N-terminus; 4-aminobenzoyl (Abz4) between the linker G and Q; C-terminal amide
**Q.** For B1, which percent serum protein bound is on record?
**A.** The percent serum protein bound was greater than 90%.

— paper PMC5867903
